Measured values published in publication PMC13043726, “SFPQ directs histone H3.3 deposition to R-loops in DNA repeats to protect genome stability”.

Tests used:
[1] = biological target: HA-tagged DAXX, full length (UniProt Q9UER7); experiment: co-immunoprecipitation (IP anti-HA, blot anti-Myc); conditions: U-2 OS cells; parent: 1
SFPQ full-length = biological target: T1, SFPQ full-length (Homo sapiens, UniProt P23246 1-707); experiment: EMSA; EMSA: 10 nM probe, 0-1600 nM SFPQ, 20 mM Tris-HCl pH 7.5, 100 mM KCl, 0.5 mM MgCl2, 0.5 mM EDTA, 0.2 mM DTT, 1% glycerol, room temperature, 30 min (RNaseOUT with RNA); 5% native PAGE, 1xTBE; conditions: protein: recombinant, tags: N-terminal His6-myc (vector pNIC-CTHF), chain copies: 2
T1 sequence: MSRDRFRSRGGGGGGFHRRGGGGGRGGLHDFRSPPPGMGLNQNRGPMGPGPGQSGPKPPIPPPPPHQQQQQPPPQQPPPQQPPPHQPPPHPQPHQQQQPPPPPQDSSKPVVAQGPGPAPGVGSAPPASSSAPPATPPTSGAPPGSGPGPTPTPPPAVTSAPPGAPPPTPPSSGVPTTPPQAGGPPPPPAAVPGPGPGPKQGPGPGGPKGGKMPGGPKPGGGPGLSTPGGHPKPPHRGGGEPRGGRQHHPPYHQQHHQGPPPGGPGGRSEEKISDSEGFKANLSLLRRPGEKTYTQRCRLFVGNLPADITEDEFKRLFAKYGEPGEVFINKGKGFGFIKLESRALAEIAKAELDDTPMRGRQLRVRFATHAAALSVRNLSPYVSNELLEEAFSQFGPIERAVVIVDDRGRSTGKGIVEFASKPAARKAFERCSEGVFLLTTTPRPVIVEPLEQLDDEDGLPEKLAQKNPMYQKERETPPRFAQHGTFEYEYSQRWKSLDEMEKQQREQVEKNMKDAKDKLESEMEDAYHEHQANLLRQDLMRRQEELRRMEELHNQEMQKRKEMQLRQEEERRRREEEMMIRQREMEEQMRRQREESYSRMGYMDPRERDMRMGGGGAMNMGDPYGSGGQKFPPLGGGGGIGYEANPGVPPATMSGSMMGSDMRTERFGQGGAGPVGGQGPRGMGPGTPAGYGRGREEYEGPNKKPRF

[2] = label: 5'-6-FAM on strand 1, blunt

Chain of HA-tagged DAXX, full length (Q9UER7 whole entry): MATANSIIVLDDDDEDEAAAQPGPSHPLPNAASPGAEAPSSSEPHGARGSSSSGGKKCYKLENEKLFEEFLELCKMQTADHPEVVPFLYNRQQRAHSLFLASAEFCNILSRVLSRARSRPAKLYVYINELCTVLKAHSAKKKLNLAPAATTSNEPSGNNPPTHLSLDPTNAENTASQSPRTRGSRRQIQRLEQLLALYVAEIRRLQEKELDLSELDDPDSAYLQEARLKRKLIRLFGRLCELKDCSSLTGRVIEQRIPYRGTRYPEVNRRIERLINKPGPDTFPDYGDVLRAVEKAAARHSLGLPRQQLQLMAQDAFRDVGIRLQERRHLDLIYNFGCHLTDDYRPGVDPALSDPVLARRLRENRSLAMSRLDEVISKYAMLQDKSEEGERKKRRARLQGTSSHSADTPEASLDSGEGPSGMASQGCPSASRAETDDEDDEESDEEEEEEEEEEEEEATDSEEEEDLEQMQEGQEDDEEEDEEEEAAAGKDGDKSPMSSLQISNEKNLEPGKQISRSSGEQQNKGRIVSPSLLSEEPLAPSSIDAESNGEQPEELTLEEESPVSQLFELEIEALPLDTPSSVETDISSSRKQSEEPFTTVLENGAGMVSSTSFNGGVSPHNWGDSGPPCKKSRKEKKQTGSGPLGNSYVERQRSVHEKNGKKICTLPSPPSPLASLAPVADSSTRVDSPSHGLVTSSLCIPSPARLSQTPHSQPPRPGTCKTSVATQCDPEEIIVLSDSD

Molecule: SFPQ proline-rich P-domain fused to GFP and a nuclear localization signal, myc-tagged (from UniProt P23246) T150delinsKP
- ratio to parent [1]: 0.2

Molecule: UUAGGGUUAGGGUUAGGGUUAGGG (ssRNA) [ssRNA TERRA [UUAGGG]4]
- binding result (SFPQ full-length; label: 5'-6-FAM, single strand): binds

B1: 23-nt blunt dsRNA (R1_B:R2_B) (dsRNA)
RNA 1: CUACUACCCCCACCCUCACAACC
RNA 2: GGUUGUGAGGGUGGGGGUAGUAG
- binding result (SFPQ full-length; [2]): no binding

B2: 23-nt dsDNA (D1_B:D3_B) (dsDNA)
DNA 1: CTACTACCCCCACCCTCACAACC
DNA 2: GGTTGTGAGGGTGGGGGTAGTAG
- binding result (SFPQ full-length; [2]): no binding

Molecule: GAAAGAAAGAAAGAAAGAAAGAA (ssRNA) [ssRNA Pericentric2 ([GAAA]5)]
- binding result (SFPQ full-length; label: 5'-6-FAM, single strand): binds

Molecule: GGAAUGGAAUGGAAUGGAAUGGA (ssRNA) [ssRNA Pericentric1 (SatIII [GGAAU]4)]
- binding result (SFPQ full-length; label: 5'-6-FAM, single strand): binds

B3: 23-nt DNA:RNA hybrid (D1_B:R2_B) (DNA:RNA)
DNA: CTACTACCCCCACCCTCACAACC
RNA: GGUUGUGAGGGUGGGGGUAGUAG
- binding result (SFPQ full-length; label: 5'-6-FAM on DNA strand, blunt): no binding
